In patent publication US20260265396A1 one finds Kd and OD450 (indirect ELISA) data, which are given here for five molecules.

In experiment [1] the target is truncated hTfR1 of SEQ ID NO:89 (human) (UniProt P02786). Briefly: SPR, hTfR1 on CM5, bispecific molecule with scFv module injected. In general terms: Surface plasmon resonance follows binding to a sensor surface in real time, without labels.
The target in experiment [2] is His10-mTfR1 (SEQ ID NO:53) (mouse) (UniProt Q62351). Briefly: indirect ELISA, His10-mTfR1 captured on Ni-coated plate, hybridoma supernatant. On the technique in general: An ELISA detects its analyte on a solid surface through an enzyme-linked reagent.
His10-mTfR1 (SEQ ID NO:53) (mouse), sequence (Q62351 other isoform, or with tags, fused parts or gaps limits assumed): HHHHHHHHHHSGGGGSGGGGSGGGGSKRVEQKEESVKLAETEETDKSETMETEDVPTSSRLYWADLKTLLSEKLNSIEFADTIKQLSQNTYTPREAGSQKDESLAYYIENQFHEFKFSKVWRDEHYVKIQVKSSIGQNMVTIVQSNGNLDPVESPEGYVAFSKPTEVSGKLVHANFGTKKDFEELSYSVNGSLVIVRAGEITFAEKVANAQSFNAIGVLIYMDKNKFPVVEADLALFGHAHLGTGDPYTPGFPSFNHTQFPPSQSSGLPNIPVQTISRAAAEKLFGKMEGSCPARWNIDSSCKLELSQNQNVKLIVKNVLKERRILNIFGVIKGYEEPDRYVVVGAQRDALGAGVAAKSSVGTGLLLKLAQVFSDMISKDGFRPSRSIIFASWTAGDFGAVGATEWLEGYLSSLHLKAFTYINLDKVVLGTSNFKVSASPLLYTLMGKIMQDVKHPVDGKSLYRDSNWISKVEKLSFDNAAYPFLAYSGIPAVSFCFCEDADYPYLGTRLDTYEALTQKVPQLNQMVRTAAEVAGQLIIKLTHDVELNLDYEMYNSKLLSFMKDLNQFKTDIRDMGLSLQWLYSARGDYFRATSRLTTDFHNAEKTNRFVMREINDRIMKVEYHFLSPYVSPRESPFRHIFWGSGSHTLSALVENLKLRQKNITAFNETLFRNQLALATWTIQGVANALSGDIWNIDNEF

truncated hTfR1 of SEQ ID NO:89 (human), sequence (P02786 other isoform, or with tags, fused parts or gaps limits assumed): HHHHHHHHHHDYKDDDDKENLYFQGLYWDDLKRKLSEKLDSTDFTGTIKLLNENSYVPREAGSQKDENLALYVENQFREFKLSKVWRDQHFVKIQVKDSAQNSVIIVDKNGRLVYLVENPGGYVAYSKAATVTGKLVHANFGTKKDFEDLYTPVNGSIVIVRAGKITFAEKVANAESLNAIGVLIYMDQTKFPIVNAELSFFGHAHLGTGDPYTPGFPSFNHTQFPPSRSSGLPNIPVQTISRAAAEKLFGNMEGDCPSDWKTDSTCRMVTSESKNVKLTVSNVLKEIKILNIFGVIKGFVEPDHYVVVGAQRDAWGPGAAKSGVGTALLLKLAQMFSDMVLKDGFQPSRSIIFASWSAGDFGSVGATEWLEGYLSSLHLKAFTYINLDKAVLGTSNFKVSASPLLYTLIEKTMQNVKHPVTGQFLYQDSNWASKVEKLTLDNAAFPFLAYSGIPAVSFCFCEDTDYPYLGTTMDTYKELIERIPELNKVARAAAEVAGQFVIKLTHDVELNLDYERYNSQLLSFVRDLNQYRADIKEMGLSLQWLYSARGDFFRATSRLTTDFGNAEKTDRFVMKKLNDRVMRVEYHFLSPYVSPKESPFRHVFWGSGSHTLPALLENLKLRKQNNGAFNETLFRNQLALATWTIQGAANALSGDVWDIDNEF

B1: bispecific binding molecule (format of WO2022/258841) with h26D3 scFv module (bispecific antibody, part only; not given: Cargo antibody chains, linkers, domain order, V domains shown, not shown: another chain or arm of the molecule; large carriers; small tags and cut ends)
VH: EVQLVQSGAEVKKPGSSVKVSCKASGYIFTDYNMDWVRQAPGQGLEWIGDINPDYDTTSYNEKFKGRATLTVDKSTSTAYMELSSLRSEDTAVYYCARGGYSGSSYYHPMDYWGQGTLVTVSS
VL: DIQMTQSPSSVSASVGDRVTITCKSSQSLLYSTNQKNYLAWYQQKPGKAPKLLIYWASTRESGVPSRFSGSGSGTDFTLTISSLQPEDFATYYCQQYFIYPRTFGQGTKVEIK
The molecule B1 yielded a Kd in experiment [1] of 10 nM.

B2: bispecific binding molecule (format of WO2022/258841) with h26D3 LC1 scFv module (bispecific antibody, part only; not given: Cargo antibody chains, linkers, domain order, V domains shown, not shown: another chain or arm of the molecule; large carriers; small tags and cut ends)
VH: EVQLVQSGAEVKKPGSSVKVSCKASGYIFTDYNMDWVRQAPGQGLEWIGDINPDYDTTSYNEKFKGRATLTVDKSTSTAYMELSSLRSEDTAVYYCARGGYSGSSYYHPMDYWGQGTLVTVSS
VL: DIQMTQSPSSVSASVGDRVTITCKSSQSLLASTNQKNYLAWYQQKPGKAPKLLIYWASTRESGVPSRFSGSGSGTDFTLTISSLQPEDFATYYCQQYFIYPRTFGQGTKVEIK
For B2, the Kd in experiment [1] was 40 nM.

B3: bispecific binding molecule (format of WO2022/258841) with h26D3 LC5 scFv module (bispecific antibody, part only; not given: cargo antibody chains, linkers, format, V domains shown, not shown: another chain or arm of the molecule; large carriers; small tags and cut ends)
VH: EVQLVQSGAEVKKPGSSVKVSCKASGYIFTDYNMDWVRQAPGQGLEWIGDINPDYDTTSYNEKFKGRATLTVDKSTSTAYMELSSLRSEDTAVYYCARGGYSGSSYYHPMDYWGQGTLVTVSS
VL: DIQMTQSPSSVSASVGDRVTITCKSSQSLLYSTNQKNYLAWYQQKPGKAPKLLIYWASTRESGVPSRFSGSGSGTDFTLTISSLQPEDFATYYCQQAFIYPRTFGQGTKVEIK
In experiment [1], B3 displayed a Kd of 400 to 500 nM.

B4: bispecific binding molecule (format of WO2022/258841) with h26D3 HC6 scFv module (bispecific antibody, part only; not given: Cargo antibody chains, linkers, domain order, V domains shown, not shown: another chain or arm of the molecule; large carriers; small tags and cut ends)
VH: EVQLVQSGAEVKKPGSSVKVSCKASGYIFTDYNMDWVRQAPGQGLEWIGDINPDADTTSYNEKFKGRATLTVDKSTSTAYMELSSLRSEDTAVYYCARGGYSGSSYYHPMDYWGQGTLVTVSS
VL: DIQMTQSPSSVSASVGDRVTITCKSSQSLLYSTNQKNYLAWYQQKPGKAPKLLIYWASTRESGVPSRFSGSGSGTDFTLTISSLQPEDFATYYCQQYFIYPRTFGQGTKVEIK
In experiment [1], B4 had a Kd of 100 to 200 nM.

B5: mouse monoclonal antibody 26D3 (antibody, mouse IgG2a, V domains shown)
VH: EVQLQQFGVELVKPGASVKISCKASGYIFTDYNMDWVKQSHGKSLEWIGDINPDYDTTSYNEKFKGKATLTVDKSSSTAYMELRSLTSEDTAVYYCARGGYSGSSYYHPMDYWGQGTSVTVSS
VL: DIVMSQSPSSLAVSVGEKITMSCKSSQSLLYSTNQKNYLAWYQQKPGQSPELLIYWASTRESGVPDRFTGSGSGTDFTLTISNVRAEDLAVYYCQQYFIYPRTFGGGTKLEIK
Consider B5, for which, in experiment [2], the OD450 (indirect ELISA) was over 0.2 OD.

As usually defined, the Kd is a measure of binding affinity in units of concentration. A low value points to tighter binding.
